How the values were obtained:
Format in all cases: cell-based, mouse
[1] = system: TNF-α mRNA in LN cells; experiment: TNF-α mRNA by real-time PCR in LN cells of GA-immunized CD-1, BALB/cByJ, SJL/J mice (Example III); conditions: stimulation 10 μg/mL, 6 hours
Procedure: On Day 0, mice were immunized with 250 μg GA (GMA, Mylan Pharmaceuticals, Inc.) and CFA. The GA solution (20 mg/mL) was diluted with Dulbecco's Phosphate-Buffered Saline to 5 mg/mL. The dosing formulation consisted of equal volumes of the diluted GA solution (5 mg/mL) and CFA solution, mixed until well-emulsified. Animals were weighed and allocated to groups. Animals were dosed by injection into four footpads. The injection volume per animal was 0.1 mL (about 10 μL into each front footpad, and 40 μL into each hind footpad).
Immunized animals were euthanized by cervical dislocation on Day 10 post-immunization. Lymph node cells were isolated from animals and treated with Myelin Basic Protein (MBP, a negative control), Concanavalin A (ConA, a positive control) or GA as shown in Table 16. Lymph nodes in the axillary and popliteal regions were removed aseptically in a purifier clean bench. […] The LN were then washed 3 times with −5 mL of RPMI medium, and isolated by pressing the LN with a syringe plunger. […] The cell suspension was centrifuged at about 200×g for 10 minutes at about 4° C. and re-suspended in ice cold enriched DCCM-1 medium. Cells were seeded in 96-well tissue culture plates.
LN cells isolated from GA-immunized animals were stimulated with GA (GMA, Mylan Pharmaceuticals, Inc.) at concentrations as indicated in Tables 16 and 17. A positive control was prepared by treating LN cells with 2.5 μg/mL concavalin A (ConA, a non-specific T cell stimulant). Myelin basic protein (MBP, 10 μg/mL) and enriched DCCM-1 medium served as negative controls. The cells from all groups each were stimulated with the same GA lot. Each reaction was set up in triplicate.
After incubation at about 37° C. in a humidified CO2 incubator for 6 hours, the cells were lysed for total RNA isolation. Total RNA was isolated from treated LN cells using SV 96 Total RNA Isolation System according to the manufacturer's protocol (Promega, Cat. #Z3500). Cells were washed once with Phosphate Buffered Saline (PBS) and lysed in RNA lysis buffer. The lysate was transferred to wells of the SV 96 binding plate. Samples were washed with RNA wash solution and treated with DNase. Total RNA was eluted with nuclease-free water from the binding plate.
After the reverse transcriptase reaction was completed, cDNA samples were used directly for real-time PCR to measure the response biomarker mRNA levels produced by the stimulated cells. […] All probes for target genes contained FAM dye, and probes for the internal control contained VIC®/MGB dye. Samples will be prepared and run in 96-well plates using a Real-Time PCR system (7500, Life Technologies). This system allows direct detection of PCR-product formation by measuring the increase in fluorescent emission continuously during the PCR reaction. A relative quantitation method was used to analyze changes in mouse IL-2, IL-4, IL-5, IL-10, IL-13, IFN-γ and TNF-α expression in GA-treated samples relative to the untreated control (enriched DCCM-1 treated) samples. The Real-Time PCR program was:
The levels of mouse cytokine amplicons (IL-2, IL-4, IL-5, IL-10, IL-13, mIFN-γ and TNF-α) were normalized to internal probe levels (GAPDH) from the same samples. The following equations were used to calculate the relative increase in response to GA stimulation compared to the control sample: ΔCT=CT_target−CT_reference ΔΔCT=−ΔCT_Treated−CT_VC

[2] = system: TNF-α secreted by LN cells; experiment: TNF-α secretion by GA-stimulated LN cells, MSD 9-plex ELISA (Example II); conditions: 21 hr
Procedure: (§1) Animals at 8 weeks of age were immunized by injection into four footpads using a 1 mL syringe with a 27-G, 1⁄2-inch needle. […] Ten days post-immunization, immunized animals were sacrificed via cervical dislocation. […] The LN cells were isolated by pressing the LN with the plunger end of a sterile syringe. […] Trypan blue exclusion method was used to determine the cell density of viable cells in the suspension. […] Cat. […] LN cells were plated into a 24-well tissue culture plate for drug stimulation. […] Cell debris was removed by centrifugation at ca. 200×g for 10 minutes at 4° C. Cytokines secreted by treated cells were determined on the day of collection by ELISA using mouse TH 1/TH 2 9-Plex Tissue Culture Kit (Meso Scale Discovery; Cat No. […]-2, Lot #: K0032839) which detects Th1 cytokines (IFN-γ, IL-2, IL-12, IL-1β, TNF-α, CXCL1) and Th2 cytokines (IL-4, IL-5 and IL-10). For IFN-γ, culture media also were assayed at 45 hours using mouse IFN-γ Tissue Culture Kit (Meso Scale Discovery; Cat No. […] For the positive control, 0.5 mL of LN cells (5×10^6 cells/well) were treated with 0.5 mL of ConA (5 μg/mL). For the negative control, 0.5 mL of LN cells (5×10^6 cells/well) were treated with 0.5 mL of MBP (20 μg/mL). The LN cells with mock stimulation (enriched DCCM1 medium) were used to monitor the background level of a cytokine. For the cytokine assays, calibration standards or samples were incubated in the MULTI-SPOT or the SINGLE-SPOT plate and each cytokine bound to its corresponding capture antibody. All test samples were run in duplicate. The amount of each cytokine on its distinct spot was quantified using a cytokine-specific detection antibody labeled with MSD SULFO-TAGTM reagent. Electrochemiluminescent signals from immobilized SULFO-TAGTM-labeled complexes on each spot from each well were captured by the MSD SECTOR Imager 6000, which produces a signal directly proportional to the amount of captured cytokine in a test sample. The levels of cytokines in test samples were derived by interpolation from calibration curves with calibration standards of known concentrations using reagents provided with the MSD kits. Kits were used according to the manufacturer's protocols. […] Data are expressed as a response ratio of cytokine concentration in treated cell medium to control DCCM1 medium.

[3] = system: IL-4 secreted by LN cells; experiment: IL-4 secretion by GA-stimulated LN cells, MSD 9-plex ELISA (Example II); conditions: 21 hr
Procedure: as §1

[4] = system: IFN-γ secreted by LN cells; experiment: IFN-γ secretion by GA-stimulated LN cells, MSD ELISA, 21 and 45 hr (Example II)
[5] = BALB/cByJ, immunized GA Intraplantar
[6] = BALB/cByJ, immunized GA Lower Limb
[7] = BALB/cByJ, immunized Mannitol Intraplantar
[8] = C57BL10J, immunized GA Intraplantar
[9] = C57BL10J, immunized GA Lower Limb
[10] = C57BL10J, immunized Mannitol Intraplantar
[11] = CD-1, immunized GA Intraplantar
[12] = CD-1, immunized Mannitol Intraplantar

B1: MBP: myelin basic protein, a negative control (protein, UniProt P02686 1-304, looked up)
Myelin basic protein: MGNHAGKRELNAEKASTNSETNRGESEKKRNLGELSRTTSEDNEVFGEADANQNNGTSSQDTAVTDSKRTADPKNAWQDAHPADPGSRPHLIRLFSRDAPGREDNTFKDRPSESDELQTIQEDSAATSESLDVMASQKRPSQRHGSKYLATASTMDHARHGFLPRHRDTGILDSIGRFFGGDRGAPKRGSGKDSHHPARTAHYGSLPQKSHGRTQDENPVVHFFKNIVTPRTPPPSQGKGRGLSLSRFSWGAEGQRPGFGYGGRASDYKSAHKGFKGVDAQGTLSKIFKLGGRDSRSGSPMARR
TNF-α mRNA Expression ([1]; Group 1C: CD-1, GA-immunized): 0.8 fold change vs control
TNF-α mRNA Expression ([1]; Group 2C: BALB/cByJ, GA-immunized): 0.8 fold change vs control
TNF-α mRNA Expression ([1]; Group 3C: SJL/J, GA-immunized): 0.3 fold change vs control
TNF-α secretion response ratio (treated cell medium to control DCCM1 medium) [2, 5]: 0.98
TNF-α secretion response ratio (treated cell medium to control DCCM1 medium) [2, 6]: 1.07
TNF-α secretion response ratio (treated cell medium to control DCCM1 medium) [2, 7]: 1.10
TNF-α secretion response ratio (treated cell medium to control DCCM1 medium) [2, 8]: 1.03
TNF-α secretion response ratio (treated cell medium to control DCCM1 medium) [2, 9]: 1.04
TNF-α secretion response ratio (treated cell medium to control DCCM1 medium) [2, 10]: 1.01
TNF-α secretion response ratio (treated cell medium to control DCCM1 medium) [2, 11]: 1.34
TNF-α secretion response ratio (treated cell medium to control DCCM1 medium) ([2]; CD-1, immunized GA Lower Limb): 1.54
TNF-α secretion response ratio (treated cell medium to control DCCM1 medium) [2, 12]: 1.51
IL-4 secretion response ratio (treated cell medium to control DCCM1 medium) [3, 5]: 0.99
IL-4 secretion response ratio (treated cell medium to control DCCM1 medium) [3, 6]: 1.05
IL-4 secretion response ratio (treated cell medium to control DCCM1 medium) [3, 7]: 1.50
IL-4 secretion response ratio (treated cell medium to control DCCM1 medium) [3, 8]: 1.09
IL-4 secretion response ratio (treated cell medium to control DCCM1 medium) [3, 9]: 1.14
IL-4 secretion response ratio (treated cell medium to control DCCM1 medium) [3, 10]: 1.03
IL-4 secretion response ratio (treated cell medium to control DCCM1 medium) [3, 11]: 0.99
IL-4 secretion response ratio (treated cell medium to control DCCM1 medium) ([3]; CD-1, immunized GA Lower Limb): 0.94
IL-4 secretion response ratio (treated cell medium to control DCCM1 medium) [3, 12]: 1.21
IFN-γ secretion response ratio (treated cell medium to control DCCM1 medium) ([4]; BALB/cByJ, immunized GA Intraplantar, 21 hr): 0.87
IFN-γ secretion response ratio (treated cell medium to control DCCM1 medium) ([4]; BALB/cByJ, immunized GA Intraplantar, 45 hr): 0.83
IFN-γ secretion response ratio (treated cell medium to control DCCM1 medium) ([4]; BALB/cByJ, immunized GA Lower Limb, 21 hr): 0.80
IFN-γ secretion response ratio (treated cell medium to control DCCM1 medium) ([4]; BALB/cByJ, immunized GA Lower Limb, 45 hr): 0.92
IFN-γ secretion response ratio (treated cell medium to control DCCM1 medium) ([4]; BALB/cByJ, immunized Mannitol Intraplantar, 21 hr): 1.17
IFN-γ secretion response ratio (treated cell medium to control DCCM1 medium) ([4]; BALB/cByJ, immunized Mannitol Intraplantar, 45 hr): 0.92
IFN-γ secretion response ratio (treated cell medium to control DCCM1 medium) ([4]; C57BL10J, immunized GA Intraplantar, 21 hr): 1.03
IFN-γ secretion response ratio (treated cell medium to control DCCM1 medium) ([4]; C57BL10J, immunized GA Intraplantar, 45 hr): 1.07
IFN-γ secretion response ratio (treated cell medium to control DCCM1 medium) ([4]; C57BL10J, immunized GA Lower Limb, 21 hr): 1.60
IFN-γ secretion response ratio (treated cell medium to control DCCM1 medium) ([4]; C57BL10J, immunized GA Lower Limb, 45 hr): 1.80
IFN-γ secretion response ratio (treated cell medium to control DCCM1 medium) ([4]; C57BL10J, immunized Mannitol Intraplantar, 21 hr): 2.02
IFN-γ secretion response ratio (treated cell medium to control DCCM1 medium) ([4]; C57BL10J, immunized Mannitol Intraplantar, 45 hr): 1.41
IFN-γ secretion response ratio (treated cell medium to control DCCM1 medium) ([4]; CD-1, immunized GA Intraplantar, 21 hr): 1.06
IFN-γ secretion response ratio (treated cell medium to control DCCM1 medium) ([4]; CD-1, immunized GA Intraplantar, 45 hr): 0.89
IFN-γ secretion response ratio (treated cell medium to control DCCM1 medium) ([4]; CD-1, immunized GA Lower Limb, 21 hr): 0.90
IFN-γ secretion response ratio (treated cell medium to control DCCM1 medium) ([4]; CD-1, immunized GA Lower Limb, 45 hr): 2.11
IFN-γ secretion response ratio (treated cell medium to control DCCM1 medium) ([4]; CD-1, immunized Mannitol Intraplantar, 21 hr): 1.57
IFN-γ secretion response ratio (treated cell medium to control DCCM1 medium) ([4]; CD-1, immunized Mannitol Intraplantar, 45 hr): 7.22
